Assay results taken from the DeepSol protein solubility set.

Assay: soluble on expression in E. coli; label from the status in PepcDB or PDB records

| Sequence | soluble on expression in E. coli |
| --- | --- |
| TEAAAQPHALPADAPDIAPERDLLSKFDGLIAERQKLLDSGVTDPFAIVMEQVKSPTEAVIRGKDTILLGTYNYMGMTFDPDVIAAGKEALEKFGSGTCGSRMLNGTFHDHMEVEQALRDFYGTTGAIVFSTGYMANLGIISTLAGKGEYVILDADSHASIYDGCQQGNAEIVRFRHNSVEDLDKRLGRLPKEPAKLVVLEGVYSMLGDIAPLKEMVAVAKKHGAMVLVDEAHSMGFFGPNGRGVYEAQGLEGQIDFVVGTFSKSVGTVGGFVVSNHPKFEAVRLACRPYIFTASLPPSVVATATTSIRKLMTAHEKRERLWSNARALHGGLKAMGFRLGTETCDSAIVAVMLEDQEQAAMMWQALLDGGLYVNMARPPATPAGTFLLRCSICAEHTPAQIQTVLGMFQAAGRAVGVIGLEHHHHHH | soluble |
| TEEDPSSGHGGVALESLSSFLAHSRRAGIYRLHLPDSVLSHFVRAALDYRERQVPFDFAFDSASDAELYCTELVAAALLRADSLLPIRPSISVAGRRVYSLDDLLLLPGTKCMALAN | not soluble |
| TITEWSVNMYNHLRGTGEDENILFSPLSIALAMGMMELGA | soluble |
| TKDFSWNTDFTFSFYRDKWKERDENWSPNPYDMYNAPLRGYYMYLSDGLIQPGEEVSWMPGALPGQVKLKDIDGYAYNED | not soluble |
| TKDFTWTTDFNIAFNNNKITSYPQKEEVVGTKIRTVGYSIYEFYMQEWAGVDPVNGDPLWYMDVTDDKGNPTGERTTTNTYSKATKYKLGSALPSATGGLTNTVSWKGVDFSFMFTYGFGGKIYDVYEENLLNDGNKTGYQLITEQADSWTPENTNASNPKFIPNNSNTSNGRSSRYLHNADFIKLKNISLGYSLPKSLIKKNLLQNVRIYVSADNLITWNLDKKFKSYDVELGGVDGLLDGGGTVPLARTFTAGINLTF | not soluble |
| TKEGQIKGKLLLPGGVKTCPVVLIIAGSGPTDMDGNSAIGNLRNNSLKFLAEGLAANGIASLRFDKRGIGTSASAGKEEAKLRFEDYVNDVTGWIDYLAKEKRFTTITVAGHSEGALIGMLACQNRPKVKGYISVAGAGRPAYEIIEAQVAAQQNPEAVRKEVASINGSLKNGKEVSDVPAYLQSLYRASVQPYLISWFKYNPRTVIASVKVPVLIVQGKNDIQVSVEDAELLKKGCPAAELLLIDKMNHVLKDCESKAVQQQMLTYGNPSLPVNSTLIASVSTFVKKLK | soluble |
| TLTTPPLELSDAIEYILMPLKAVHFPVYEVALMLSIALRFVPTLMDETEKIMNAQRARGVDFGEGNIFQQMRAVVPLLIPLFVSSFNRAEDLATAMEARGYQGGEGRSKYRILKWHQRDTWATGCFAILTVALIFLRA | not soluble |
| TNGFLKILGLGSGHDDKDKLSSEELRTVVHEAGGLIPRRHQDMLISILDLEHVTVNDIMVPRSEITGIDINDDWKSISRQLTHSPHGRIVLYRDQIDEVVGMLRLRESYRLMLEKNEFTKETLLRAADEIYFIPEATPLNSQLLKFQRNKERIGLVVDEYGDIQGLITLEDILEEIVGEFT | not soluble |
| TPNEMGYLHVIENLTKKRMTPLRPPTEKEAFKGQLSAAVETIESDLEENGLDKYLESAEALLEKYSATDLAALLLKTVAKDPADAVPVKITPERPLPSNKKGFNKNGR | not soluble |
| TPRGYTTWVNTIQTNGLLNEASQNLFGILSVDCTSEEMNAFLDVVPGQAGQKQILLDAIDKIADDWDNRHPLPNAPLVAPPQGPIPMTARFIRGLGVPRERQMEPAFDQFRQTYRQWIIEAMSEGIKVMIGKPKAQNIRQGAKEPYPEFVDRLLSQIKSEGHPQEISKFLTDTLTIQNANEECRNAMRHLRPEDTLEEKMYACRDIG | soluble |
| TPTDKHGGSDTRCPLMVKILDAVKGTPAGSVALKVSQKTADGGWTQIATGVTDATGEIHNLITEQQFPAGVYRVEFDTKAYWTNQGSTPFHEVAEVVFDAHPEGHRHYTLALLLSPFSYTTTAVVSSVHE | soluble |
| TQDMELNINANITFQQNKLLSLSGMYNGELISAPEYKSLASLDGAGFHGGYNHIVYQVVGQPLGVFYLPRANGLVSDGNGGYTYDIADLNGGGVSLEDGEDRYVAGQAVPKTILGSNLSFRYKRFDISVQINGAFGHKIYNGTSLTYMNMNIFPDYNVMQEAPARNIKDQTATDYWLENGAYVNFDYVTLGWNVPIEKVQKLKKYVRSLRLAFTVNNLATISGYSGLSPMINSSTVNSTLGLDDKRGYPLARTYTLGLSINF | not soluble |
| TRSVKSCVGKEFCRFGTQYTTRLGIRLEKTFEYIDTPHKFKMGVSGCPRSCVESGVKDFGIISVENGFQIYIGGNGGTEVEKAEFLTTVETEDEVIKLCGALMQYYRETGIYAERTAPWLRRLGFENVKEVLLD | not soluble |
| TVAYIAIGSNLASPLEQVNAALKALGDIPESHILTVSSFYRTPPLGPQDQPDYLNAAVALETSLAPEELLNHTQRIELQQGRVRKAERWGPRTLDLDIMLFGNEVINTERLTVPHYDMKNRGFMLWPLFEIAPELVFPDGEMLRQILHTRAFDKLNKW | soluble |
| TVQTQDKVTAMDKDPKVTVDVTGYQWNWKFGYAKVAGELSPTGSDYVGTDEKRQEAAEKTKFDQGGDNPNPINGRSKTDTSYLHFNKIETLGTSEEIPV | not soluble |
| VADSASTVTNEFSADHPFIYVIRHVDGKILFVGRYSSPTTN | soluble |
| VCEKGFEAGDNKLGGALNAKHVEKYGDNFKNGMHKPEFHEDGLHKPMEVGGKKFESGFHYLLECHELGGKNASGGYGGPLCEDPYGSEVQAMTEKLLKEADSDRTLCFNNFQDPCPQLTKEQVAMCKGFDYGDKTLKLPCGPLPWPAGLPEPGYVPKTNPLHGRWITVSGGQAAFIKEAIKSGMLGAAEANKIVADTDHHQTGGMYLRINQFGDVCTVDASVAKFARAKRTWKSGHYFYEPLVSGGNLLGVWVLPEEYRKIGFFWEMESGRCFRIERRAFPVGPYTFMRQATEVGGKISFVFYVKVSNDPESDPIPLQSRDYTALAGRDNAPTNLGKPYPTLAKDLDYPKKRDGWLEKNEKEMLRQRNIVSSTF | soluble |
| VDQFISPEQLQGVIYTDGELQADEMTLEIAELLQSAGPWGQHFPEPLFEGQCRILQQRILAGKHLKLMIQFNDRFELYDAIWFNVDLRTFPDLSIKHAQIVYKLDINEFRGNKNIQLRVESLIPL | not soluble |
| VEQIMIQGTASDAGKSVIVAGLCRLFKNKGKRVVPFKSQNMSLNSFITATGDEMGRAQVFQAEAAGVFPDVRMNPVLLKPTNDRQSQVIFMGAILDNMDAVSYHDFKQTLIPKIQAVYQSLADENDIIVLEGAGSPAEINLNDRDIVNMGMAKMVDAPVVLVADIDKGGVFASIYGTIMLLKEEERARLKGVIINKFRGDVALLQPGIEMIEELTNVPVIGVIPYANLQL | not soluble |
| VFDWDGTLVDSIARIVDSMKAAARETALPERGDTRIKGIIGLGLPEAIASLYPEVGDPALVERFRCAYSEHYLAQEAQPSRLFPGVAEAMVHFREAGFRLAVATGKSRRGLDRVLAGHGWSDFFDITRCADETASKPDPLMLHEILAHCRVEPGRALMIGDSPFDLEMARRAGMDSVAVAYGAQSLEQLRPYAPRLEVEHFTELRAWLGGARREAVS | not soluble |
| VFHPVECSYCHSESMMGFRYRCQQCHNYQLCQDCFWRGHAGGSHSNQHQMKEYTSW | soluble |
| VGKEKAEVELLQVDADLQAEIVGKYNADLQKAVQIEEKKAREIATEAVKEHVTAEYEERYAEHEEHDRIMRDVAEILEQMEHAEVRRLITEDKVRPDGRRVDEIRP | not soluble |
| VHPLPADHGRSRCNRHPISPLSLIGNASATSGDMSSMTRIAKPLIKSAMAAGLVTASMSLSTAVAHAGPSPNWDAVAQCESGGNWAANTGNGKYGGLQFKPATWAAFGGVGNPAAASREQQIAVANRVLAEQGLDAWPTCGAASGLPIALWSKPAQGIKQIINEIIWAGIQASIPR | not soluble |
| VIALLAPGQGSQTEGMLSPWLQLPGAADQIAAWSKAADLDLARLGTTASTEEITDTAVAQPLIVAATLLAHQELARRCVLAGKDVIVAGHSVGEIAAYAIAGVIAADDAVALAATRGAEMAKACATEPTGMSAVLGGDETEVLSRLEQLDLVPANRNAAGQIVAAGRLTALEKLAEDPPAKARVRALGVAGAFHTEFMAPALDGFAAAAANIATADPTATLLSNRDGKPVTSAAAAMDTLVSQLTQPVRWDLCTATLREHTVTAIVEFPPAGTLSGIAKRELRGVPARAVKSPADLDELANL | not soluble |
| VILKDALLMGTKLLKSADIDTPALEAGVLLCRVLNVDRSYLYSHDDYNMTEEEYKKFTLFLEERIKGKPLQYITGHQEFMSLDFIVTPDVLIPRQDTETLVEAVLTHVKSTGLENARILDIGTGSGCIAVSLAHFLKDSRVLALDISEKALEIAETNAKRCGVWDRMFFLKGDALEGLAGIIAQSPFAKDFERKGEGFFDIIVSNPPYIPSEEIKTLHKQVKDYEPRTALDGGIDGLDFYRAITCEAAKLLSTDSLLAFEVGYNQAENVSEFMKESFSAIKVVKDLAGIDRVVMGCRKQLKD | soluble |
| VKAKKQETAATMKDVALKAKVSTATVSRALMNPDKVSQATRNRVEKAAREVGYLPQPMGRNVKRNESRTILVIVPDICDPFFSEIIRGIEVTAANHGYLVLIGDCAHQNQQEKTFIDLIITKQIDGMLLLGSRLPFDASIEEQRNLPPMVMANEFAPELELPTVHIDNLTAAFDAVNYLYEQGHKRIGCIAGPEEMPLCHYRLQGYVQALRRCGIMVDPQYIARGDFTFEAGSKAMQQLLDLPQPPTAVFCHSDVMALGALSQAKRQGLKVPEDLSIIGFDNIDLTQFCDPPLTTIAQPRYEIGREAMLLLLDQMQGQHVGSGSRLMDCELIIRGSTRALP | soluble |
| VKILVDENMPYARDLFSRLGEVTAVPGRPIPVAQLADADALMVRSVTKVNESLLAGKPIKFVGTATAGTDHVDEAWLKQAGIGFSAAPGCNAIAVVEYVFSSLLMLAERDGFSLYDRTVGIVGVGNVGRRLQARLEALGIKTLLCDPPRADRGDEGDFRSLDELVQRADILTFHTPLFKDGPYKTLHLADEKLIRSLKPGAILINACRGAVVDNTALLTCLNEGQKLSVVLDVWEGEPELNVELLKKVDIGTSHIAGYTLEGKARGTTQVFEAYSKFIGHEQHVALDTLLPAPEFGRITLHGPLDQPTLKRLVHLVYDVRRDDAPLRKVAGIPGEFDKLRKNYLERREWSSLYVICDDASAASLLCKLGFNAVHHPAR | soluble |
| VLRSKSLCHDEIENLLDSDHRELIGDYSKAFLLQTVDGKHQDLKYISPETMVALLTGKFSNIVDKFVIVDCRYPYEYEGGHIKTAVNLPLERDAESFLLKSPIAPCSLDKRVILIFHCEFSSERGPRMCRFIRERDRAVNDYPSLYYPEMYILKGGYKEFFPQHPNFCEPQDYRPMNHEAFKDELKTFRLKTRSWAGERSRRELCSRLQDQ | soluble |
| VNSVQIKNATAIVTGASSGIGLAFASLLAQKGYNLLLIARNINKLNDLAKTLSTQYDTQCNVLSIDLSEENASKKVLEYIITNNLNISVLINNAGFSGNYKFLEADWSQLSKELNVMSIAVTELCYLIAPLMEKNSWGRIINVSSGAAYLPPTQSLLYTGLKSYVLNFSQSLDMELKPKGINVTALCPGFTRSEFHNTMGTNKQVSKVPNFLWQA | not soluble |
